Results on 52 sequences are retold here after the supplement of paper PMC10567573.

± gives the standard deviation.

This data set in a line: protein stability index of a GFP-peptide fusion (GPS, HEK-293T) (PSI 1-6); higher = more stable. The conditions noted are these: c terminus: a fixed tail appended.
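Further: 24-mer peptide tiles fused after GFP, lentivirally expressed, FACS-sorted into six equal bins by GFP/DsRed ratio, decoded by Illumina sequencing, PSI is the read-weighted mean bin number.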

The sequence FSLEQQLDDEDDDEEDCPNPEEYN [SRPK2] had a protein stability index (treatment: DMSO) of 5.61 ± 0.27 and a protein stability index (treatment: MLN4924 1 uM, 8 h) of 5.71 ± 0.13.

As to FTRPNEKGEYEVAEGIGSTVFRAI [BTBD10], the protein stability index runs as follows: (treatment: DMSO) 3.18 ± 0.42; (treatment: MLN4924 1 uM, 8 h) 3.46 ± 0.38.

As to FVAFAAKLWSFFIYLLRRQIRTVI [CTDNEP1], the protein stability index stood at 3.29 ± 0.16 (treatment: DMSO) and 3.3 ± 0.31 (treatment: MLN4924 1 uM, 8 h).

Consider FVELQGFLAAEQDIREEIRKVVQS [TSN], for which the protein stability index by setting is: (treatment: DMSO) 2.21 ± 0.41; (treatment: MLN4924 1 uM, 8 h) 2.48 ± 0.82.

FVVGNCLQIASDSHQYDRIYCGAG [PCMTD1]: the protein stability index was 2.45 ± 0.38 (treatment: DMSO) and 2.62 ± 1 (treatment: MLN4924 1 uM, 8 h).

Regarding FYPVMLILFLVIGGMLNFMMHDQR [SOAT2], the protein stability index reads like this: (treatment: DMSO) 3.34 ± 0.36; (treatment: MLN4924 1 uM, 8 h) 2.95 ± 0.11.

Regarding GADYPVDGLPDLGHAQDLMDGLPP [CTNNB1], the protein stability index is, setting by setting: (treatment: DMSO) 4.95 ± 0.24; (treatment: MLN4924 1 uM, 8 h) 5.17 ± 0.068.

As to GASSLPTTMNYPLWSQSYEDSSNQ [MAGEA3], the protein stability index was determined as 4.42 ± 0.11 (treatment: DMSO) and 4.57 ± 0.15 (treatment: MLN4924 1 uM, 8 h).

Turning to GCLLDDGLEGLFEDIDTSMYDNEL [SERTAD1], the protein stability index turned out to be 4.28 ± 0.48 (treatment: DMSO) and 4.32 ± 0.42 (treatment: MLN4924 1 uM, 8 h).

Turning to GCRLPSISSTTCGRQLEKVPEKRD [SPATS1], the protein stability index by setting is: (treatment: DMSO) 3.98 ± 0.36; (treatment: MLN4924 1 uM, 8 h) 3.84 ± 0.22.

Turning to GDAFGSSASEPQPASQAASSSSAS [SNAP91], the protein stability index came out at 5.48 ± 0.16 (treatment: DMSO) and 5.32 ± 0.31 (treatment: MLN4924 1 uM, 8 h).

Regarding GDESSLLLNAASTVARPVFTEYQA [RHOBTB3], the protein stability index reads like this: (treatment: DMSO) 3.57 ± 0.29; (treatment: MLN4924 1 uM, 8 h) 3.52 ± 0.29.

Regarding GDKSESPDEANVGKHPKDKTEDEN [TOR1AIP2], the protein stability index (treatment: DMSO) turned out to be 5.55 ± 0.2 and the protein stability index (treatment: MLN4924 1 uM, 8 h) is 5.44 ± 0.46.

GDLFNGRYHVIRKLGWGHFSTVWL [SRPK2]: the protein stability index reads like this: (treatment: DMSO) 2.19 ± 0.07; (treatment: MLN4924 1 uM, 8 h) 2.17 ± 0.81.

Take GDLSGGQVLKKIAQKALDLPSSGE [HMOX1]: the protein stability index is, setting by setting: (treatment: DMSO) 4.77 ± 0.37; (treatment: MLN4924 1 uM, 8 h) 4.8 ± 0.13.

As to GDNPYMYPEQSKGFHKAGSMLPPV [SPATS1], the protein stability index runs as follows: (treatment: DMSO) 3.37 ± 0.16; (treatment: MLN4924 1 uM, 8 h) 3.35 ± 0.27.

In the case of GDRLQFNQLSQAELDELASKAPVL [EFHC1], the protein stability index is, setting by setting: (treatment: DMSO) 4.25 ± 0.42; (treatment: MLN4924 1 uM, 8 h) 4.72 ± 0.36.

Turning to GEQVGRGPGFHAGTSALWRHLRSA [ZBED3], the protein stability index reads like this: (treatment: DMSO) 3.35 ± 0.13; (treatment: MLN4924 1 uM, 8 h) 3.27 ± 0.27.

With GFSPSYEFFAVTRFLVGMMNGGMS [SLC22A15], the protein stability index by setting is: (treatment: DMSO) 2.54 ± 1.2; (treatment: MLN4924 1 uM, 8 h) 2.28 ± 0.4.

As for GGAICGGPDHRLRLWRLFQTLDVN [SLC25A25], the protein stability index amounted to 2.33 ± 0.27 (treatment: DMSO) and 2.48 ± 0.42 (treatment: MLN4924 1 uM, 8 h).

The sequence GGANDRWVRSVSFSHDGLHVASLA [WSB1] had a protein stability index (treatment: DMSO) of 3.08 ± 0.3 and a protein stability index (treatment: MLN4924 1 uM, 8 h) of 3.16 ± 0.42.

Regarding GGDLEEQQHAEGSPEPGTPAAPTP [DNAAF3], the protein stability index is, setting by setting: (treatment: DMSO) 5.61 ± 0.26; (treatment: MLN4924 1 uM, 8 h) 5.54 ± 0.31.

With GGGLLKYSNLLVRDFRPTDQEEIK [TENT5C], the protein stability index is, setting by setting: (treatment: DMSO) 3.79 ± 0.32; (treatment: MLN4924 1 uM, 8 h) 3.75 ± 0.6.

With GGRLENQKPRGLEGGVLRGSKLEK [ZSWIM9], the protein stability index is, setting by setting: (treatment: DMSO) 4.91 ± 0.68; (treatment: MLN4924 1 uM, 8 h) 4.9 ± 0.65.

As to GGVGGSSRARSASSPRGMVRVCDL [ANKRD17], the protein stability index (treatment: DMSO) was found to be 3.97 ± 0.28 and the protein stability index (treatment: MLN4924 1 uM, 8 h) stood at 3.97 ± 0.36.

Take GHRYPCFFNTLHVGGTIRTCQKFL [POP5]: the protein stability index runs as follows: (treatment: DMSO) 2.23 ± 0.48; (treatment: MLN4924 1 uM, 8 h) 2.03 ± 0.21.

As to GHSQPDGAYSSASSFSRPLGYPYV [DLX1], the protein stability index amounted to 3.35 ± 0.14 (treatment: DMSO) and 3.17 ± 0.29 (treatment: MLN4924 1 uM, 8 h).

As for GIIVKDARLNGSVASYILASHNGI [TENT5D], the protein stability index came to 2.66 ± 0.045 (treatment: DMSO) and 2.189 ± 0.003 (treatment: MLN4924 1 uM, 8 h).

The sequence GKAYRFLFGFSAVSIMYLVLVLAV [JAGN1] displayed a protein stability index (treatment: DMSO) of 2.22 ± 0.1 and a protein stability index (treatment: MLN4924 1 uM, 8 h) of 2.12 ± 0.35.

The sequence GKGWKATRLFHDSAVTSVRILQDE [DCAF4] registered a protein stability index (treatment: DMSO) of 3.39 ± 0.21 and a protein stability index (treatment: MLN4924 1 uM, 8 h) of 3.67 ± 0.34.

In the case of GKKVSNQRFEVIEFDDGSGSVLRI [PTPRD], the protein stability index by setting is: (treatment: DMSO) 2.38 ± 0.74; (treatment: MLN4924 1 uM, 8 h) 2.5 ± 0.26.

For GKMVEEVDGRATQKLIVNLKPEKS [PTPRD], the protein stability index (treatment: DMSO) was 4.69 ± 0.13 and the protein stability index (treatment: MLN4924 1 uM, 8 h) is 4.66 ± 0.29.

GKVIVWDSFTTNKEHAVTMPCTWV [GNB5]: the protein stability index was 2.55 ± 0.37 (treatment: DMSO) and 2.27 ± 0.36 (treatment: MLN4924 1 uM, 8 h).

As for GLPAQQVGPWLGQLQELLHHCDDH [RSAD1], the protein stability index stood at 3.6 ± 0.34 (treatment: DMSO) and 3.61 ± 0.29 (treatment: MLN4924 1 uM, 8 h).

Consider GLSHSHDLSMDGLFGTIAYLPPER [RIPK4], for which the protein stability index by setting is: (treatment: DMSO) 3.28 ± 0.32; (treatment: MLN4924 1 uM, 8 h) 3.42 ± 0.25.

In the case of GLSTEAEQPFIPVEVLVDLFLKEG [PRAME], the protein stability index amounted to 3.05 ± 0.11 (treatment: DMSO) and 3.3 ± 0.33 (treatment: MLN4924 1 uM, 8 h).

For GLWSRISHLVLPVQPVSSIEEQGC [TOR1AIP2], the protein stability index by setting is: (treatment: DMSO) 2.44 ± 0.26; (treatment: MLN4924 1 uM, 8 h) 2.64 ± 0.38.

In the case of GMDLNLEAEALAGTGLVLDEQLNE [HDAC6], the protein stability index is, setting by setting: (treatment: DMSO) 5.4 ± 0.44; (treatment: MLN4924 1 uM, 8 h) 5.33 ± 0.24.

With GMRYAFIGPLETMHLNAEGMLSYC [CRYL1], the protein stability index amounted to 2.56 ± 0.62 (treatment: DMSO) and 2.72 ± 0.74 (treatment: MLN4924 1 uM, 8 h).

Regarding GNKCDLEDERVVGKEQGQNLARQW [RAP1B], the protein stability index reads like this: (treatment: DMSO) 4.7 ± 0.12; (treatment: MLN4924 1 uM, 8 h) 4.73 ± 0.14.

With GNYMEAKSVLIPVYGVSKETFLSF [RHOBTB3], the protein stability index is, setting by setting: (treatment: DMSO) 2.69 ± 0.53; (treatment: MLN4924 1 uM, 8 h) 2.31 ± 0.34.

Consider GPAGHSKGELAPELGEEPQPRDEE [POLD4], for which the protein stability index is 5.41 ± 0.23 (treatment: DMSO) and 5.43 ± 0.15 (treatment: MLN4924 1 uM, 8 h).

For GPALPNGPLLGTNGATDDSKTNLI [ELAVL3], the protein stability index reads like this: (treatment: DMSO) 4.99 ± 0.17; (treatment: MLN4924 1 uM, 8 h) 4.93 ± 0.33.

For the sequence GPFGGFFASGFKRAFKIKDFANTI [CDS1], the protein stability index is, setting by setting: (treatment: DMSO) 2.38 ± 0.31; (treatment: MLN4924 1 uM, 8 h) 2.44 ± 1.

In the case of GPGAHILRRKSPASGQGPMCNVKA [ADAMTS4], the protein stability index is, setting by setting: (treatment: DMSO) 4.05 ± 0.34; (treatment: MLN4924 1 uM, 8 h) 3.76 ± 0.36.

Regarding GPGDSQGRKRRQTSMTDFYHSKRR [CDKN1A], the protein stability index by setting is: (treatment: DMSO) 3.62 ± 0.42; (treatment: MLN4924 1 uM, 8 h) 4.78 ± 0.19.

Regarding GPKESLPVIAAPSMWTRPQIKDFK [ACBD3], the protein stability index turned out to be 3.8 ± 0.29 (treatment: DMSO) and 3.79 ± 0.16 (treatment: MLN4924 1 uM, 8 h).

With GPPPAQGSPGDGGLQDQVGAWGLP [EMID1], the protein stability index runs as follows: (treatment: DMSO) 5.02 ± 0.12; (treatment: MLN4924 1 uM, 8 h) 5.03 ± 0.4.

In the case of GPSHPDTSYYIRYRGAVYADSGNF [FEM1C], the protein stability index came out at 2.11 ± 0.45 (treatment: DMSO) and 2.54 ± 0.35 (treatment: MLN4924 1 uM, 8 h).

In turn, GPVRPAIPPPLSSVYAWGGGLGTP [NEK8] registered a protein stability index (treatment: DMSO) of 3.18 ± 0.2 and a protein stability index (treatment: MLN4924 1 uM, 8 h) of 3.18 ± 0.27.

Take GQAEEELIKAKSQARLEEQQRLAH [LRRC45]: the protein stability index by setting is: (treatment: DMSO) 5.13 ± 0.26; (treatment: MLN4924 1 uM, 8 h) 4.91 ± 0.38.

Consider GQDTFCQGKADGLYPNPRERSSFY [CHIT1], for which the protein stability index came to 3.71 ± 0.28 (treatment: DMSO) and 3.57 ± 0.35 (treatment: MLN4924 1 uM, 8 h).
